Measured values: ChEMBL document CHEMBL1143427, “Interactions of ceftobiprole with beta-lactamases from molecular classes A to D” (Antimicrob Agents Chemother, 2007)

Key:
Details in all cases: Enterobacter cloacae
[1] = substrate: CC(C)(O/N=C(\C(=O)N[C@@H]1C(=O)N2C(C(=O)[O-])=C(C[n+]3ccccc3)CS[C@H]12)c1csc(N)n1)C(=O)O
Description: (§1) Ratio of Kcat to Km of Enterobacter cloacae 4092 AmpC (E2) assessed as drug hydrolysis by spectrophotometry

[2] = substrate: CC1(C)S[C@@H]2[C@H](NC(=O)Cc3ccccc3)C(=O)N2[C@H]1C(=O)O
Description: as §1

[3] = substrate: CO/N=C(\C(=O)N[C@@H]1C(=O)N2C(C(=O)[O-])=C(C[N+]3(C)CCCC3)CS[C@H]12)c1csc(N)n1
Description: as §1

[4] = substrate: Nc1nc(/C(=N/O)C(=O)N[C@@H]2C(=O)N3C(C(=O)O)=C(/C=C4\CCN([C@@H]5CCNC5)C4=O)CS[C@H]23)ns1
Description: as §1

[5] = substrate: O=C(Cc1cccs1)N[C@@H]1C(=O)N2C(C(=O)O)=C(/C=C/c3ccc([N+](=O)[O-])cc3[N+](=O)[O-])CS[C@H]12
Description: as §1

[6] = substrate: CC(C)(O/N=C(\C(=O)N[C@@H]1C(=O)N2C(C(=O)[O-])=C(C[n+]3ccccc3)CS[C@H]12)c1csc(N)n1)C(=O)O; remark: listed apart in the source
Description: (§2) Activity of Enterobacter cloacae 4080 AmpC (P99) assessed as drug hydrolysis by spectrophotometry

[7] = substrate: CC1(C)S[C@@H]2[C@H](NC(=O)Cc3ccccc3)C(=O)N2[C@H]1C(=O)O; remark: listed apart in the source
Description: as §2

[8] = substrate: CO/N=C(\C(=O)N[C@@H]1C(=O)N2C(C(=O)[O-])=C(C[N+]3(C)CCCC3)CS[C@H]12)c1csc(N)n1; remark: listed apart in the source
Description: as §2

[9] = substrate: Nc1nc(/C(=N/O)C(=O)N[C@@H]2C(=O)N3C(C(=O)O)=C(/C=C4\CCN([C@@H]5CCNC5)C4=O)CS[C@H]23)ns1; remark: listed apart in the source
Description: as §2

[10] = substrate: O=C(Cc1cccs1)N[C@@H]1C(=O)N2C(C(=O)[O-])=C(C[n+]3ccccc3)CS[C@H]12
Description: as §2

[11] = substrate: CC(C)(O/N=C(\C(=O)N[C@@H]1C(=O)N2C(C(=O)[O-])=C(C[n+]3ccccc3)CS[C@H]12)c1csc(N)n1)C(=O)O; remark: listed apart in the source
Description: (§3) Ratio of Kcat to Km of Enterobacter cloacae 4080 AmpC (P99) assessed as drug hydrolysis by spectrophotometry

[12] = substrate: CC1(C)S[C@@H]2[C@H](NC(=O)Cc3ccccc3)C(=O)N2[C@H]1C(=O)O; remark: listed apart in the source
Description: as §3

[13] = substrate: CO/N=C(\C(=O)N[C@@H]1C(=O)N2C(C(=O)[O-])=C(C[N+]3(C)CCCC3)CS[C@H]12)c1csc(N)n1; remark: listed apart in the source
Description: as §3

[14] = substrate: Nc1nc(/C(=N/O)C(=O)N[C@@H]2C(=O)N3C(C(=O)O)=C(/C=C4\CCN([C@@H]5CCNC5)C4=O)CS[C@H]23)ns1; remark: listed apart in the source
Description: as §3

[15] = substrate: O=C(Cc1cccs1)N[C@@H]1C(=O)N2C(C(=O)[O-])=C(C[n+]3ccccc3)CS[C@H]12; remark: listed apart in the source
Description: as §3

[16] = substrate: CC(C)(O/N=C(\C(=O)N[C@@H]1C(=O)N2C(C(=O)[O-])=C(C[n+]3ccccc3)CS[C@H]12)c1csc(N)n1)C(=O)O; remark: listed apart in the source
Description: (§4) Activity of Enterobacter cloacae 908R AmpC assessed as drug hydrolysis by spectrophotometry

[17] = substrate: CC1(C)S[C@@H]2[C@H](NC(=O)Cc3ccccc3)C(=O)N2[C@H]1C(=O)O; remark: listed apart in the source
Description: as §4

[18] = substrate: CO/N=C(\C(=O)N[C@@H]1C(=O)N2C(C(=O)[O-])=C(C[N+]3(C)CCCC3)CS[C@H]12)c1csc(N)n1; remark: listed apart in the source
Description: as §4

[19] = substrate: Nc1nc(/C(=N/O)C(=O)N[C@@H]2C(=O)N3C(C(=O)O)=C(/C=C4\CCN([C@@H]5CCNC5)C4=O)CS[C@H]23)ns1; remark: listed apart in the source
Description: as §4

[20] = substrate: O=C(Cc1cccs1)N[C@@H]1C(=O)N2C(C(=O)[O-])=C(C[n+]3ccccc3)CS[C@H]12; remark: listed apart in the source
Description: as §4

[21] = substrate: CC(C)(O/N=C(\C(=O)N[C@@H]1C(=O)N2C(C(=O)[O-])=C(C[n+]3ccccc3)CS[C@H]12)c1csc(N)n1)C(=O)O; remark: listed apart in the source
Description: (§5) Ratio of Kcat to Km of Enterobacter cloacae 908R AmpC assessed as drug hydrolysis by spectrophotometry

[22] = substrate: CC1(C)S[C@@H]2[C@H](NC(=O)Cc3ccccc3)C(=O)N2[C@H]1C(=O)O; remark: listed apart in the source
Description: as §5

[23] = substrate: CO/N=C(\C(=O)N[C@@H]1C(=O)N2C(C(=O)[O-])=C(C[N+]3(C)CCCC3)CS[C@H]12)c1csc(N)n1; remark: listed apart in the source
Description: as §5

[24] = substrate: Nc1nc(/C(=N/O)C(=O)N[C@@H]2C(=O)N3C(C(=O)O)=C(/C=C4\CCN([C@@H]5CCNC5)C4=O)CS[C@H]23)ns1; remark: listed apart in the source
Description: as §5

[25] = substrate: O=C(Cc1cccs1)N[C@@H]1C(=O)N2C(C(=O)[O-])=C(C[n+]3ccccc3)CS[C@H]12; remark: listed apart in the source
Description: as §5

B1: Beta-lactamase (Enterobacter cloacae), P05364 (protein)
chain: MMRKSLCCALLLGISCSALATPVSEKQLAEVVANTITPLMKAQSVPGMAVAVIYQGKPHYYTFGKADIAANKPVTPQTLFELGSISKTFTGVLGGDAIARGEISLDDAVTRYWPQLTGKQWQGIRMLDLATYTAGGLPLQVPDEVTDNASLLRFYQNWQPQWKPGTTRLYANASIGLFGALAVKPSGMPYEQAMTTRVLKPLKLDHTWINVPKAEEAHYAWGYRDGKAVRVSPGMLDAQAYGVKTNVQDMANWVMANMAPENVADASLKQGIALAQSRYWRIGSMYQGLGWEMLNWPVEANTVVEGSDSKVALAPLPVAEVNPPAPPVKASWVHKTGSTGGFGSYVAFIPEKQIGIVMLANTSYPNPARVEAAYHILEALQ
[1]
  kcat/Km: 1500 M⁻¹ s⁻¹
[2]
  kcat/Km: 7.8e+06 M⁻¹ s⁻¹
[3]
  kcat/Km: < 33 M⁻¹ s⁻¹
[4]
  kcat/Km: < 2200 M⁻¹ s⁻¹
[5]
  kcat/Km: 1e+07 M⁻¹ s⁻¹
[6]
  Km: 2.9 µM
  kcat: 0.021 s⁻¹
[7]
  Km: 4.7 µM
  kcat: 32 s⁻¹
[8]
  Km: 67 µM
  kcat: 0.27 s⁻¹
[9]
  Km: 9.4 µM
  kcat: 0.21 s⁻¹
[10]
  Km: 330 µM
  kcat: 2500 s⁻¹
[11]
  kcat/Km: 7200 M⁻¹ s⁻¹
[12]
  kcat/Km: 6.8e+06 M⁻¹ s⁻¹
[13]
  kcat/Km: 4000 M⁻¹ s⁻¹
[14]
  kcat/Km: 22000 M⁻¹ s⁻¹
[15]
  kcat/Km: 7.6e+06 M⁻¹ s⁻¹
[16]
  Km: 3.5 µM
  kcat: 2.3 s⁻¹
[17]
  Km: 6 µM
  kcat: 53 s⁻¹
[18]
  Km: 16 µM
  kcat: 0.82 s⁻¹
[19]
  Km: 12 µM
  kcat: 0.45 s⁻¹
[20]
  Km: 360 µM
  kcat: 3200 s⁻¹
[21]
  kcat/Km: 660000 M⁻¹ s⁻¹
[22]
  kcat/Km: 8.8e+06 M⁻¹ s⁻¹
[23]
  kcat/Km: 75000 M⁻¹ s⁻¹
[24]
  kcat/Km: 38000 M⁻¹ s⁻¹
[25]
  kcat/Km: 8.9e+06 M⁻¹ s⁻¹
